The subject of one experiment is human primary B cells. The experiment can be described thus: Proliferation of CER+ B cells co-cultured with paclitaxel treated Jurkat cells (CELLTRACE Violet dilution). Format: cell-based. As to conditions: 5 days co-culture with paclitaxel (30 μM) treated Jurkat cells, no exogenous cytokines. The protocol: The proliferation capacity of CER19+ and CER21+ human primary B cells was evaluated by co-culture with paclitaxel (30 μM) treated Jurkat lymphoma cells. CER-transduced B cells were labeled with CELLTRACE Violet and then co-cultured with paclitaxel treated Jurkat cells a target cell to effector cell ratio of 5:1 at 37° C. in the absence of exogenous cytokines for 5 days. Proliferation of CER19+ or CER21+B cells was assessed by flow cytometry by measuring dilution of CELLTRACE Violet (FIG. 23). Both CER19+ and CER21+ B cells increased approximately 10-fold after 5 days of co-culture in the absence of exogenous cytokines.

The test system of experiment [1] is dexamethasone treated thymocytes. Put plainly: Phagocytic activity of CER+ Ba/F3 cells against primary apoptotic thymocytes. The class given is cell-based, C3H mouse. The conditions noted are these: for engulfment of dexamethasone-treated thymocytes: target:effector 10:1, 3 hours or overnight, fluorescent microscopy, vs EGFRt control. Here is the method: One day prior to phagocytic assay, primary thymocytes were isolated from a C3H mouse (Charles River Laboratories International, Inc.). Thymocytes were cultured in complete RPMI 1640 growth media supplemented with 10% fetal bovine serum and 1% penicillin-streptomycin in a 6-well plate. To induce apoptosis and phosphatidylserine expression on the cell surface, thymocytes were treated with 1 μM dexamethansone for 24 hours. Untreated thymocytes were used as a negative control. Thymocytes were collected from the 6-well plates, washed once with sterile 1X PBS, and then stained with 1 ng/μ1 pH sensitive pHrodo™ Red dye (ThermoFisher Scientific, Catalog #P36600) in PBS at room temperature for 15 minutes. Labeling target cells with pHrodo Red dye permits visualization of cells that are engulfed and transported into lysosomes due to their increased light emission in the acidic lysosomal environment (Miksa et al., 2009, Immunol. Methods 342:71-7). The cells were then supplemented with growth media and washed one more time to remove any excess pHrodo Red. pHrodo Red stained thymocytes were plated on a flat bottom 96 well plate at 250,000 cells/well in RMPI 1640 complete media. […]
[…] The 96 well plate was then viewed using KEYENCE BZ-X710 fluorescence microscope, 20X objective. […]
A phagocytic index was calculated by multiplying [mean of total number of engulfed target cells/total number of counted CER modified cells (e.g., phagocytic frequency)] by [average area of target cell staining per CER+Ba/F3 cell x 100 (e.g., hybrid capture)] as compared to control EGFRt+Ba/F3 cells (see, FIG. 8). […]
Primary C3H mouse thymocytes were isolated, treated with dexamethasone, and stained with pHrodo Red as described in Example 1. […] Co-culture experiments were carried out at a 10:1 target cell to effector cell ratio, and Ba/F3 CER07^+tEGFR^+ cells were quantified for phagocytosis by fluorescence microscopy and FACs as described in Example 1. […]

For experiment [2], the system named is CT26 murine colon carcinoma cells. Put plainly: Phagocytic activity of CER+ Ba/F3 cells against murine cell line CT26. Format: cell-based. The conditions noted are these: target:effector 5:1, 3 hours. Here is the method: One day prior to the phagocytosis assay, CT26 murine colon carcinoma cells were cultured in complete RPMI 1640 growth media supplemented with 10% fetal bovine serum and 1% penicillin-streptomycin in a 6-well plate and treated with 1 mM staurosporine (STS) for 12 hours to induce apoptosis. Untreated CT26 cells were used as a negative control.
On the day of the phagocytosis assay, CT26 cells were collected, washed twice with 1×PBS to remove excess staurosporine and then stained with 1 ng/μ1 pHrodo Red in PBS at room temperature for 15 minutes. […]
Target CT26 cells were co-cultured with stained, CER05^+tEGFR^+ cells at a ratio of 5:1 (target cell:effector cell) for 3 hours at 37° C. […] The 96 well plate was then viewed using KEYENCE BZ-X710 fluorescence microscope, 20X objective. […]
A hybrid capture algorithm that detects fluorescence of pHrodo Red within CELLTRACE Violet staining area was applied to fluorescent images to quantify the area of engulfed target cells/area of CER^+ B cells or control tEGFR+ B cells (see, FIG. 12). […]
A hybrid capture algorithm that detects fluorescence of pHrodo Red within CELLTRACE Violet staining area was applied to fluorescent images to quantify the area of engulfed target cells/area of CER^+ B cells (see, FIG. 17). […]

B1: CER19: Tim4 binding and transmembrane domains, TLR5 signaling domain; SEQ ID NO:86 (protein)
chain: MSKGLLLLWLVTELWWLYLTPAASEDTIIGFLGQPVTLPCHYLSWSQSRNSMCWGKGSCPNSKCNAELLRTDGTRIISRKSTKYTLLGKVQFGEVSLTISNTNRGDSGVYCCRIEVPGWFNDVKKNVRLELRRATTTKKPTTTTRPTTTPYVTTTTPELLPTTVMTTSVLPTTTPPQTLATTAFSTAVTTCPSTTPGSFSQETTKGSAFTTESETLPASNHSQRSMMTISTDIAVLRPTGSNPGILPSTSQLTTQKTTLTTSESLQKTTKSHQINSRQTILIIACCVGFVLMVLLFLAFLTKFRGFCFICYKTAQRLVFKDHPQGTEPDMYKYDAYLCFSSKDFTWVQNALLKHLDTQYSDQNRFNLCFEERDFVPGENRIANIQDAIWNSRKIVCLVSRHFLRDGWCLEAFSYAQGRCLSDLNSALIMVVVGSLSQYQLMKHQSIRGFVQKQQYLRWPEDFQDVGWFLHKLSQQILKKEKEKKKDNNIPLQTVATIS
modifications: CER19 chimeric engulfment receptor
For the molecule B1, the “increase of CER+ B cells” value with human primary B cells was “approximately 10 fold”.

B2: CER07: Tim4 binding domain, TLR4 juxtamembrane spacer, TLR4 transmembrane domain, TLR4 signaling domain; SEQ ID NO:83 (protein)
chain: MSKGLLLLWLVTELWWLYLTPAASEDTIIGFLGQPVTLPCHYLSWSQSRNSMCWGKGSCPNSKCNAELLRTDGTRIISRKSTKYTLLGKVQFGEVSLTISNTNRGDSGVYCCRIEVPGWFNDVKKNVRLELRRATTTKKPTTTTRPTTTPYVTTTTPELLPTTVMTTSVLPTTTPPQTLATTAFSTAVTTCPSTTPGSFSQETTKGSAFTTESETLPASNHSQRSMMTISTDIAVLRPTGSNPGILPSTSQLTTQKTTLTTSESLQKTTKSHQINSRQTPVLSLNITCQMNKTIIGVSVLSVLVVSVVAVLVYKFYFHLMLLAGCIKYGRGENIYDAFVIYSSQDEDWVRNELVKNLEEGVPPFQLCLHYRDFIPGVAIAANIIHEGFHKSRKVIVVVSQHFIQSRWCIFEYEIAQTWQFLSSRAGIIFIVLQKVEKTLLRQQVELYRLLSRNTYLEWEDSVLGRHIFWRRLRKALLDGKSWNPEGTVGTGCNWQEATSI
modifications: CER07 chimeric engulfment receptor
For the molecule B2, the “engulfment of dexamethasone-treated thymocytes” value in experiment [1] was “engulfed dexamethasone-treated thymocytes”. Further, the “phagocytosis of staurosporine treated CT26 cells” value in experiment [2] is reported as “engulfed staurosporine treated CT26 cells”.

B3: CER05: Tim4 binding domain, Tim4 transmembrane domain, TLR4 signaling domain; SEQ ID NO:81 (protein)
chain: MSKGLLLLWLVTELWWLYLTPAASEDTIIGFLGQPVTLPCHYLSWSQSRNSMCWGKGSCPNSKCNAELLRTDGTRIISRKSTKYTLLGKVQFGEVSLTISNTNRGDSGVYCCRIEVPGWFNDVKKNVRLELRRATTTKKPTTTTRPTTTPYVTTTTPELLPTTVMTTSVLPTTTPPQTLATTAFSTAVTTCPSTTPGSFSQETTKGSAFTTESETLPASNHSQRSMMTISTDIAVLRPTGSNPGILPSTSQLTTQKTTLTTSESLQKTTKSHQINSRQTILIIACCVGFVLMVLLFLAFLKFYFHLMLLAGCIKYGRGENIYDAFVIYSSQDEDWVRNELVKNLEEGVPPFQLCLHYRDFIPGVAIAANIIHEGFHKSRKVIVVVSQHFIQSRWCIFEYEIAQTWQFLSSRAGIIFIVLQKVEKTLLRQQVELYRLLSRNTYLEWEDSVLGRHIFWRRLRKALLDGKSWNPEGTVGTGCNWQEATSI
modifications: CER05 chimeric engulfment receptor
As for B3, in experiment [1] (6 hours, 50 nM LysoTracker green), the “co-localization of pHrodo red labeled thymocytes with LysoTracker green vesicles” value is listed as “pHrodo-labeled target cells have been internalized into lysosomes”. Moreover, in experiment [1], the “engulfment of dexamethasone-treated thymocytes” value is on record as “engulf dexamethasone-treated thymocytes”. Besides, in experiment [2], the “phagocytosis of staurosporine treated CT26 cells” value is listed as “in vitro phagocytosis”.

Values taken from patent US11708423B2, “Chimeric engulfment receptor molecules and methods of use” (CERO THERAPEUTICS, INC., priority 2017, dated 2023).
